Assay results reported in publication PMC9870083.

Target: RARα (UniProt P10276)
Assay: Flag IP of RARα, GFP-p65 blot
Conditions: reference: GFP-p65 wild type; sites S276

binding against the reference: lost
Substance: RelA/p65 (from UniProt Q04206) GFP-p65-S276A
